“Also recorded” adds a separate entry of the source.
How the values were obtained:
Type in all cases: cell-based, Human cytomegalovirus
HCMV [1] = assay: HCMV IE1 / viral gene expression, western blot of infected cells
Description: (A) pp65 immunofluorescence after HCMV treatment (1 h, 4° C.) followed by shifting to 37° C. for indicated times. Rows represent (top to bottom): HEL, PDGFRα null fibroblasts, parental fibroblasts, null fibroblasts overexpressing hPDGFRα, HEL transfected with control, or PDGFRα siRNA. Nuclei were stained with DAPI. (B) Average±S.D. pp65 positive/100 cells counted in triplicate from (A). (C) Mock or HCMV infected cells were analyzed by western blotting with the indicated antibodies. Lanes 1-4 indicate HEL, 325S, PDGFRα null and PDGFRα null over-expressing hPDGFRα, respectively. (D) HEL transfected with control or PDGFRα siRNA were mock (lanes 1) or HCMV-treated (lanes 2) and subjected to western blots with indicated antibodies. (E) Western blot of HEL and U87 lysates after infection with mock (lanes 1), HCMV (lanes 2), or HCMV pretreated with IMC-3G3 (10 μg/ml, 12 h, lanes 3) or Gleevec (100 nM, 1 h, lanes 4). […] 6 dpi, supernatants were used to infect naïve HEL cells, followed by IE1 immunostaining and quantification (secondary infection). […]
HUVEC cells were pre-treated with IMC-3G3 (10 μg/ml, Imclone, 12 h), or Gleevec (100 nM, 1 h) prior to HCMV or mock infection. 12 hours post-infection, cell lysates were analyzed by western blot for the presence of IE1 gene product. […]
(§1) Western Blot, Immunoprecipitation, and Immunofluorescence analyses. […] Cell lysates were analyzed by SDS-PAGE. […]

HCMV [2] = assay: Viral attachment and internalization assay (pp65 immunofluorescence); details: HEL
Description: (A) HEL cells were pretreated with PBS (20 min 4° C.), IMC-3G3 (2 h, 37° C., 10 μg/ml), or PDGF-AA (20 min, 4° C., 10 ng/ml) prior to infection with HCMV (MOI of 1, 4° C., 1 h). Cells were returned to 37° C. for 30 minutes, and processed for pp65^HCMV and PDGFRα double immunofluorescence. […] All conditions were assayed in triplicate cultures. One hundred cells in 4 low magnification fields were counted. Bars represent SD.
Viral Attachment and Internalization Assays. Mouse fibroblasts and HEL cells (72 hours following siRNA transfections) were incubated with HCMV (MOI of 0.5) or mock treated for 1 hour at 4° C., after which cells were returned to 37° C. for 15, 30, or 60 min. Cells were fixed using methanol (20 min) and processed for pp65 immunofluorescence. Four low power fields were counted for each condition and pp65 positive were recorded for each 100 cells. Internalization assays were repeated twice.

HCMV [3] = assay: IE1 immunofluorescence of HCMV infected HEL cells
Description: HEL cells were transfected with PDGFRα siRNA (smart pool, Dharmacon) or non-targeting control siRNA (Dharmacon) for 48-60 hours when maximum protein knockdown is achieved (panels a and b. Also see FIG. 3d). Cells were then infected with Towne, AD169, TR, or CMV-GFP strains of HCMV for 1 hour, washed and returned to 37° C. in complete growth media. Supernatants obtained from these cultures were used in subsequent assays measuring production of infectious virus as described below. […] Cultures infected with supernatants from GFP-CMV treated cells were monitored daily under the fluorescence microscope. Over 40% of the control siRNA treated cells expressed CMV-GFP 1 day post infection (c, 1 dpi) and this number increased to 100% by day 6 (c, 6 dpi). Note the appearance of “plaques”-like groups of cells in control siRNA transfected cells (c, 3 and 6 dpi). […]
Measurements of Infectious Virus Production. […] A duplicate set of cultures was analyzed by immunofluorescence at 12 hours post infection (hpi) to assess percent of IE1 positive cells, as a measure of “primary infection”. […] 12 hpi cells were stained for IE1 and IE1 positive cells were counted amongst a total of 100 cells/low magnification microscopic field, 4 fields/condition. […] Where indicated, CMV-GFP infected cells were monitored daily under fluorescence microscope. […]

HCMV [4] = assay: Measurements of infectious virus production; details: for infectious virus production (secondary infection): supernatants of siRNA treated HEL harvested 6 dpi used to infect naïve HEL, IE1 staining
Description: HEL cells were transfected with PDGFRα siRNA (smart pool, Dharmacon) or non-targeting control siRNA (Dharmacon) for 48-60 hours when maximum protein knockdown is achieved (panels a and b. Also see FIG. 3d). Cells were then infected with Towne, AD169, TR, or CMV-GFP strains of HCMV for 1 hour, washed and returned to 37° C. in complete growth media. Supernatants obtained from these cultures were used in subsequent assays measuring production of infectious virus as described below. One set of cultures (panels a and b) were used 12 hours post-infection (12 hpi) to measure the expression level of PDGFRα and IE1 by immunofluorescence. […] Cultures infected with supernatants from GFP-CMV treated cells were monitored daily under the fluorescence microscope. Over 40% of the control siRNA treated cells expressed CMV-GFP 1 day post infection (c, 1 dpi) and this number increased to 100% by day 6 (c, 6 dpi). Note the appearance of “plaques”-like groups of cells in control siRNA transfected cells (c, 3 and 6 dpi). […] To measure infectious virus production, supernatants from both control and PDGFRα siRNA treated cultures were harvested at 6 dpi and used to infect naïve HEL cells (secondary infection). […] These experiments were repeated twice.
Measurements of Infectious Virus Production. HEL cells (where indicated were treated with siRNA) were infected with HCMV Towne or CMV-GFP for 1 h, washed and grown for 6 days at 37° C. A duplicate set of cultures was analyzed by immunofluorescence at 12 hours post infection (hpi) to assess percent of IE1 positive cells, as a measure of “primary infection”. Six days post infection supernatant from these cells were centrifuged to exclude cell debris and used to infect naïve HEL cultures as described above. 12 hpi cells were stained for IE1 and IE1 positive cells were counted amongst a total of 100 cells/low magnification microscopic field, 4 fields/condition. These counts were used to determine the level of “secondary infection”—i.e., infectious virus production from the primary infected cells. Where indicated, CMV-GFP infected cells were monitored daily under fluorescence microscope. Each condition was assayed in triplicate.

HCMV [5] = assay: Plaque formation assay; details: HEL; CMV-GFP MOI of 1; siRNA knockdown at time of infection; counted at 14 dpi
Description: HEL cells transfected with PDGFRα siRNA and control cultures were infected with CMV-GFP (MOI of 1), as described in FIG. 8. Unabsorbed viruses were washed and cells were returned to 37 C. 24 h later, supernatant was harvested and used to infect naïve HEL cultures (6 wells/condition) which were monitored daily for 14 days under the fluorescence microscope for plaque formation. Photomicrographs show representative examples of the CMV-GFP infected cells at 2 and 12 days post infection (2 dpi and 12 dpi, respectively). b. Average plaques counted in 4 separate low magnification fields for each well at 14 dpi. […] As receptor levels return to normal (12 dpi), few infected (green fluorescent) cells were detected in the PDGFRα siRNA treated cultures (a, lower right panel), without formation of plaques. Plaque formation assays were repeated twice. Average counts (n=12)±SD are shown.
Plaque Formation Assays. Plaque formation was assayed. Confluent HEL cells in 6 well cluster plates were incubated with Towne-GFP (MOI of 1, 1 hr) in 0.5 ml growth media. Cells were washed and returned to 37° C. (in complete growth media). 24 h later supernatant was harvested and used to infect naïve HEL cultures which were monitored for plaque formation for 6-14 days. […] At day 14, plaques in ten low magnification fields/condition were counted (each experimental condition was tested in 6 independent wells).

HCMV [6] = assay: HCMV pp65 western blot in HEL cells; details: siRNA 48 h prior to HCMV MOI of 1, western blot 2 h post-infection, indicates viral entry not inhibited
Description: HEL cells were transfected with siRNA against the PI3K p110α catalytic subunit (a mixture of 4 RNAi oligos, “smart pool” from Dharmacon) or non-targeting, control siRNA (Dharmacon) for 48 h prior to infection with HCMV (MOI of 1) for 1 hour. Cells were washed and cultured for 2 h-6 days. a. […] The mean number of IE1 positive cells is reduced by ˜50% in the PI3 Kp110α knockdown cultures—panel c**, p<0.01. PI3K p110α knock down is also significant (b, left panels, red fluorescence). However, unlike cells that lack a functional PDGFRα, PI3K p110α knock down cells are capable of producing infectious virus as shown by IE1 staining of the secondary infected cultures (panel d). A 10% decrease in infectious virus production in the cells treated with p110α siRNA is insignificant*, bars represent SD, […], panel c. Experiments were repeated twice, all conditions were assayed in triplicate. Similar results were obtained with both Towne-infected cultures (illustrated in this figure) and CMV-GFP.
Upper panel: HEL cells pretreated with anti-human PDGFRα antibody (10 ng/ml, for 30 min, clone AF-307-NA from R&D; lanes 1 and 4) or with AG 1295 (lane 3, […], from Calbiochem) were stimulated with Towne HCMV (lanes 2-4) or Mock infected (lane 1) for 10 min at 37 C. […]
as §1

HCMV [7] = assay: HCMV IE1 / viral gene expression, western blot of infected cells; details: HEL; p110α knockdown vs non-targeting siRNA

Row | Molecule | viral gene expression (IE1 and pp65) (HCMV [1]; HEL cells pre-treated with siRNA, western blot, compared to controls) | viral internalization (nuclear pp65) (HCMV [2]; siRNA knockdown, 60 min after shifting to 37° C., vs non-targeting control siRNA, p<0.001) | IE1 gene expression (primary infection) (HCMV [3]; HEL transfected with siRNA 48-60 h, 12 hpi, vs control siRNA) | CMV-GFP expression (HCMV [4]; siRNA treated HEL cells monitored daily under fluorescence microscope, 1-6 dpi) | infectious virus production (secondary infection) (HCMV [4]) | plaque formation (HCMV [5]) | IE1 expression (HCMV [1]; HEL, siRNA 48 h prior to HCMV MOI of 1, western blot 2 h post-infection) | viral entry (HCMV [2]; p110α knockdown) | pp65 HCMV expression (HCMV [6]) | reduction of mean number of IE1 positive cells (HCMV [3]; HEL, p110α knockdown cultures, p<0.01) [%] | decrease in infectious virus production (HCMV [4]; HEL treated with p110α siRNA, secondary infection, insignificant) [%] | viral gene expression (HCMV [7])
1 | PDGFRα siRNA: "smart Pool" siRNA to hPDGFRα (Dharmacon), SEQ ID NO: 1-4 (nucleic acid, pool of four siRNAs, further chemistry not given here) chain 1: CGAGACUCCUGUAACCUUAUU chain 2: GAGCUUCACCUAUCAAGUUUU chain 3: GACAGUGGCCAUUAUACUAUU chain 4: GAAUAGGGAUAGCUUCCUGUU | undetectable | near complete blockade | Near complete inhibition; also recorded: significantly inhibited | did not express CMV-GFP | Near complete inhibition; also recorded: did not produce any infectious virus | completely blocked; also recorded: No plaques were formed | – | – | – | – | – | –
2 | p110α siRNA: mixture of 4 RNAi oligos, "smart pool" from Dharmacon, against PI3K p110α, SEQ ID NO: 5-8 (nucleic acid, pool of four siRNAs, further chemistry not given here) chain 1: GCGAAAUUCUCACACUAUU chain 2: GUGGUAAAGUUCCCAGAUA chain 3: GCUUAGAGUUGGAGUUUGA chain 4: GACCCUAGCCUUAGAUAAA | – | – | – | – | lower levels than controls | – | inhibited | allowed | unchanged | ~50 | 10 | delay

From patent US9340788B2 (priority 2007, dated 2016)
